# Measurements reported in US10898561B2, “Peptides and combination of peptides for use in immunotherapy against pancreatic cancer and other cancers” (IMMATICS BIOTECHNOLOGIES GMBH, priority 2015, dated 2021).
# Molecular target: HLA-A*02:01 (Homo sapiens, UniProt P04439, D140Y/D185E/D98H/E176V/E277Q/G131W/G231S/I119V/I121R/I166T/I218V/L300P/L318F/N151K/N90K/P208A/P217A/Q86G/Q94H/R138H/R169H/T345S)
# Experiment: MHC binding assay: UV-ligand exchange with beta2m ELISA
# Conditions: MHC class I binding score, yield of UV-ligand exchange
# Excerpt: Candidate peptides for T cell based therapies according to the present invention were further tested for their MHC binding capacity (affinity). The individual peptide-MHC complexes were produced by UV-ligand exchange, where a UV-sensitive peptide is cleaved upon UV-irradiation, and exchanged with the peptide of interest as analyzed. Only peptide candidates that can effectively bind and stabilize the peptide-receptive MHC molecules prevent dissociation of the MHC complexes. To determine the yield of the exchange reaction, an ELISA was performed based on the detection of the light chain (β2m) of stabilized MHC complexes. The assay was performed as generally described in Rodenko et al. (Rodenko et al., 2006).
# 96 well MAXISorp plates (NUNC) were coated over night with 2 ug/ml streptavidin in PBS at room temperature, washed 4× and blocked for 1 h at 37° C. in 2% BSA containing blocking buffer. Refolded HLA-A*02:01/MLA-001 monomers served as standards, covering the range of 15-500 ng/ml. Peptide-MHC monomers of the UV-exchange reaction were diluted 100 fold in blocking buffer. Samples were incubated for 1 h at 37° C., washed four times, incubated with 2 ug/ml HRP conjugated anti-β2m for 1 h at 37° C., washed again and detected with TMB solution that is stopped with […]. Absorption was measured at 450 nm. Candidate peptides that show a high exchange yield (preferably higher than 50%, most preferred higher than 75%) are generally preferred for a generation and production of antibodies or fragments thereof, and/or T cell receptors or fragments thereof, as they show sufficient avidity to the MHC molecules and prevent dissociation of the MHC complexes.
row,Substance,Peptide exchange
1,1 (FLAQQESEI; listed as Homo sapiens) [compound 1],++ (20%-49% = ++)
2,2 (SLQEEHVAVA; listed as Homo sapiens) [compound 2],++ (20%-49% = ++)
3,4 (SVDVSPPKV; listed as Homo sapiens) [compound 4],++ (20%-49% = ++)
4,5 (LLVDDSFLHTV; listed as Homo sapiens) [compound 5],+++ (50%-75% = +++)
5,6 (VLISLKQAPLV; listed as Homo sapiens) [compound 6],++ (20%-49% = ++)
6,7 (AQQESEIAGI; listed as Homo sapiens) [compound 7],++ (20%-49% = ++)
7,8 (IVDDLTINL; listed as Homo sapiens) [compound 8],++ (20%-49% = ++)
8,9 (FLFDGSANLV; listed as Homo sapiens) [compound 9],++ (20%-49% = ++)
9,10 (FLVDGSSAL; listed as Homo sapiens) [compound 10],++ (20%-49% = ++)
10,11 (FLYKIIDEL; listed as Homo sapiens) [compound 11],+++ (50%-75% = +++)
11,12 (FVSEIVDTV; listed as Homo sapiens) [compound 12],+++ (50%-75% = +++)
12,13 (LLAGQTYHV; listed as Homo sapiens) [compound 13],++ (20%-49% = ++)
13,14 (VLAKPGVISV; listed as Homo sapiens) [compound 14],++ (20%-49% = ++)
14,15 (SLANNVTSV; listed as Homo sapiens) [compound 15],++ (20%-49% = ++)
15,16 (APVNVTTEVKSV; listed as Homo sapiens) [compound 16],++ (20%-49% = ++)
16,17 (FLKSGDAAIV; listed as Homo sapiens) [compound 17],++ (20%-49% = ++)
17,18 (SLLDDELMSL; listed as Homo sapiens) [compound 18],++ (20%-49% = ++)
18,22 (TLDGAAVNQV; listed as Homo sapiens) [compound 22],++ (20%-49% = ++)
19,24 (GLLEELVTV; listed as Homo sapiens) [compound 24],++ (20%-49% = ++)
20,25 (SLKEEVGEEAI; listed as Homo sapiens) [compound 25],++ (20%-49% = ++)
21,26 (SLKEEVGEEAIV; listed as Homo sapiens) [compound 26],++ (20%-49% = ++)
22,27 (YLQGQRLDNV; listed as Homo sapiens) [compound 27],++ (20%-49% = ++)
23,28 (YLQGQRLDNVV; listed as Homo sapiens) [compound 28],++ (20%-49% = ++)
24,29 (FLQEYLDAI; listed as Homo sapiens) [compound 29],+++ (50%-75% = +++)
25,30 (VVDEGPTGV; listed as Homo sapiens) [compound 30],++ (20%-49% = ++)
26,31 (SLAAAAGKQEL; listed as Homo sapiens) [compound 31],++ (20%-49% = ++)
27,32 (SLAAAAGKQELA; listed as Homo sapiens) [compound 32],+ (<20% = +)

row,Substance,Peptide exchange
1,33 (SLDSRLELA; listed as Homo sapiens) [compound 33],++ (20%-49% = ++)
2,35 (VMDSGDGVTHTV; listed as Homo sapiens) [compound 35],++ (20%-49% = ++)
3,38 (NLVEKTPALV; listed as Homo sapiens) [compound 38],+++ (50%-75% = +++)
4,39 (TLLSNLEEA; listed as Homo sapiens) [compound 39],++ (20%-49% = ++)
5,40 (FILDSAETTTL; listed as Homo sapiens) [compound 40],++ (20%-49% = ++)
6,41 (FLLDGSEGV; listed as Homo sapiens) [compound 41],+++ (50%-75% = +++)
7,42 (KLVDKSTEL; listed as Homo sapiens) [compound 42],++ (20%-49% = ++)
8,43 (RLDQRVPQI; listed as Homo sapiens) [compound 43],++ (20%-49% = ++)
9,44 (VLLDKIKNLQV; listed as Homo sapiens) [compound 44],++ (20%-49% = ++)
10,46 (TFAPVNVTTEVKSV; listed as Homo sapiens) [compound 46],++ (20%-49% = ++)
11,47 (KMDASLGNLFA; listed as Homo sapiens) [compound 47],++++ (>=75% = ++++)
12,48 (ALTQTGGPHV; listed as Homo sapiens) [compound 48],++ (20%-49% = ++)
13,49 (NLKGTFATL; listed as Homo sapiens) [compound 49],+ (<20% = +)
14,51 (ALMLQGVDL; listed as Homo sapiens) [compound 51],++ (20%-49% = ++)
15,52 (RMVEEIGVEL; listed as Homo sapiens) [compound 52],++ (20%-49% = ++)
16,53 (SSFGGLGGGSV; listed as Homo sapiens) [compound 53],+ (<20% = +)
17,54 (VLLSEIEVA; listed as Homo sapiens) [compound 54],++ (20%-49% = ++)
18,55 (YLDAMMNEA; listed as Homo sapiens) [compound 55],++ (20%-49% = ++)
19,56 (GLLDYATGAIGSV; listed as Homo sapiens) [compound 56],+++ (50%-75% = +++)
20,57 (FLGKVVIDV; listed as Homo sapiens) [compound 57],++++ (>=75% = ++++)
21,58 (GLAAFKAFL; listed as Homo sapiens) [compound 58],+++ (50%-75% = +++)
22,59 (KLFNLSKEDDV; listed as Homo sapiens) [compound 59],++ (20%-49% = ++)
23,60 (YLEEDVYQL; listed as Homo sapiens) [compound 60],++ (20%-49% = ++)
24,64 (FLVSNMLLAEA; listed as Homo sapiens) [compound 64],+++ (50%-75% = +++)
25,65 (YLYDSETKNA; listed as Homo sapiens) [compound 65],++ (20%-49% = ++)
26,66 (ALLSGLREA; listed as Homo sapiens) [compound 66],+++ (50%-75% = +++)
27,67 (KMFFLIDKV; listed as Homo sapiens) [compound 67],+++ (50%-75% = +++)
